Results as given in FireProtDB.
Values joined by “and” are separate entries in the source; they are usually repeats but may differ in a detail not shown here. Equal values may be shown once.

[1] = Mus musculus, pH 6.88, 5 °C, Pressure, NMR, Tris 20 mM, reversible: yes, structure 1MBG
[2] = Salmo salar, pH 7.1, Thermal, CD, HEPES 10 mM, NaCl MgCl2 30 mM 3mM
[3] = Equus caballus, pH 6, 20 °C, GdnHCl, CD, MES 10 mM, NaCl 0.4 M, reversible: yes
[4] = Equus caballus, pH 7, 10 °C, GdnHCl, CD, sodium phosphate 0.1 M, reversible: yes
[5] = Equus caballus, pH 7, 10 °C, GdnHCl, Fluorescence, acetate/phosphate 50 mM/50 mM/
[6] = Equus caballus, pH 7, 22 °C, GdnHCl, Fluorescence, sodium phosphate 0.1 M, reversible: yes
[7] = Equus caballus, pH 7, 23 °C, GdnHCl, SAXS, Phosphate 100 mM, transition: 2
[8] = Equus caballus, pH 7, 25 °C, GdnHCl, DSC, cacodylic acid 0.03 M, NaCl 0.1 M, reversible: yes
[9] = Equus caballus, pH 12.7, 22 °C, GdnHCl, Fluorescence, NaOH, reversible: yes
[10] = Bos taurus, pH 8, 30 °C, GdnHCl, CD, borate 10 mM, structure 1BP2
[11] = Thermotoga maritima (strain ATCC 43589 / DSM 3109 / JCM 10099 / NBRC 100826 / MSB8), pH 6.5, 25 °C, GdnHCl, Fluorescence, sodium phosphate 50 mM, NaCl 20 mM, reversible: yes
[12] = Homo sapiens, pH 7.4, 25 °C, GdnHCl, CD, PBS, structure 1TIT
[13] = Homo sapiens, pH 7, Thermal, CD, Phosphate 100 mM, NaCl 150 mM, structure 1DXX
[14] = Drosophila melanogaster, pH 7.5, 15 °C, GdnHCl, CD, Tris-HCl, NaCl 50 mM, structure 1SAN
[15] = Escherichia coli, pH 7, Thermal, CD, phosphate 50 mM, reversible: yes

Chain of Cytochrome c wild type, P00004 (P00004 whole entry): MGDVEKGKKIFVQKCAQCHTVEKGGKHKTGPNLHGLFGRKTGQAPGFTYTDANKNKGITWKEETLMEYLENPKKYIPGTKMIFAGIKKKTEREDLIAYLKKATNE
Chain of Fibronectin D1544N, P02751 (P02751 whole entry D1544N): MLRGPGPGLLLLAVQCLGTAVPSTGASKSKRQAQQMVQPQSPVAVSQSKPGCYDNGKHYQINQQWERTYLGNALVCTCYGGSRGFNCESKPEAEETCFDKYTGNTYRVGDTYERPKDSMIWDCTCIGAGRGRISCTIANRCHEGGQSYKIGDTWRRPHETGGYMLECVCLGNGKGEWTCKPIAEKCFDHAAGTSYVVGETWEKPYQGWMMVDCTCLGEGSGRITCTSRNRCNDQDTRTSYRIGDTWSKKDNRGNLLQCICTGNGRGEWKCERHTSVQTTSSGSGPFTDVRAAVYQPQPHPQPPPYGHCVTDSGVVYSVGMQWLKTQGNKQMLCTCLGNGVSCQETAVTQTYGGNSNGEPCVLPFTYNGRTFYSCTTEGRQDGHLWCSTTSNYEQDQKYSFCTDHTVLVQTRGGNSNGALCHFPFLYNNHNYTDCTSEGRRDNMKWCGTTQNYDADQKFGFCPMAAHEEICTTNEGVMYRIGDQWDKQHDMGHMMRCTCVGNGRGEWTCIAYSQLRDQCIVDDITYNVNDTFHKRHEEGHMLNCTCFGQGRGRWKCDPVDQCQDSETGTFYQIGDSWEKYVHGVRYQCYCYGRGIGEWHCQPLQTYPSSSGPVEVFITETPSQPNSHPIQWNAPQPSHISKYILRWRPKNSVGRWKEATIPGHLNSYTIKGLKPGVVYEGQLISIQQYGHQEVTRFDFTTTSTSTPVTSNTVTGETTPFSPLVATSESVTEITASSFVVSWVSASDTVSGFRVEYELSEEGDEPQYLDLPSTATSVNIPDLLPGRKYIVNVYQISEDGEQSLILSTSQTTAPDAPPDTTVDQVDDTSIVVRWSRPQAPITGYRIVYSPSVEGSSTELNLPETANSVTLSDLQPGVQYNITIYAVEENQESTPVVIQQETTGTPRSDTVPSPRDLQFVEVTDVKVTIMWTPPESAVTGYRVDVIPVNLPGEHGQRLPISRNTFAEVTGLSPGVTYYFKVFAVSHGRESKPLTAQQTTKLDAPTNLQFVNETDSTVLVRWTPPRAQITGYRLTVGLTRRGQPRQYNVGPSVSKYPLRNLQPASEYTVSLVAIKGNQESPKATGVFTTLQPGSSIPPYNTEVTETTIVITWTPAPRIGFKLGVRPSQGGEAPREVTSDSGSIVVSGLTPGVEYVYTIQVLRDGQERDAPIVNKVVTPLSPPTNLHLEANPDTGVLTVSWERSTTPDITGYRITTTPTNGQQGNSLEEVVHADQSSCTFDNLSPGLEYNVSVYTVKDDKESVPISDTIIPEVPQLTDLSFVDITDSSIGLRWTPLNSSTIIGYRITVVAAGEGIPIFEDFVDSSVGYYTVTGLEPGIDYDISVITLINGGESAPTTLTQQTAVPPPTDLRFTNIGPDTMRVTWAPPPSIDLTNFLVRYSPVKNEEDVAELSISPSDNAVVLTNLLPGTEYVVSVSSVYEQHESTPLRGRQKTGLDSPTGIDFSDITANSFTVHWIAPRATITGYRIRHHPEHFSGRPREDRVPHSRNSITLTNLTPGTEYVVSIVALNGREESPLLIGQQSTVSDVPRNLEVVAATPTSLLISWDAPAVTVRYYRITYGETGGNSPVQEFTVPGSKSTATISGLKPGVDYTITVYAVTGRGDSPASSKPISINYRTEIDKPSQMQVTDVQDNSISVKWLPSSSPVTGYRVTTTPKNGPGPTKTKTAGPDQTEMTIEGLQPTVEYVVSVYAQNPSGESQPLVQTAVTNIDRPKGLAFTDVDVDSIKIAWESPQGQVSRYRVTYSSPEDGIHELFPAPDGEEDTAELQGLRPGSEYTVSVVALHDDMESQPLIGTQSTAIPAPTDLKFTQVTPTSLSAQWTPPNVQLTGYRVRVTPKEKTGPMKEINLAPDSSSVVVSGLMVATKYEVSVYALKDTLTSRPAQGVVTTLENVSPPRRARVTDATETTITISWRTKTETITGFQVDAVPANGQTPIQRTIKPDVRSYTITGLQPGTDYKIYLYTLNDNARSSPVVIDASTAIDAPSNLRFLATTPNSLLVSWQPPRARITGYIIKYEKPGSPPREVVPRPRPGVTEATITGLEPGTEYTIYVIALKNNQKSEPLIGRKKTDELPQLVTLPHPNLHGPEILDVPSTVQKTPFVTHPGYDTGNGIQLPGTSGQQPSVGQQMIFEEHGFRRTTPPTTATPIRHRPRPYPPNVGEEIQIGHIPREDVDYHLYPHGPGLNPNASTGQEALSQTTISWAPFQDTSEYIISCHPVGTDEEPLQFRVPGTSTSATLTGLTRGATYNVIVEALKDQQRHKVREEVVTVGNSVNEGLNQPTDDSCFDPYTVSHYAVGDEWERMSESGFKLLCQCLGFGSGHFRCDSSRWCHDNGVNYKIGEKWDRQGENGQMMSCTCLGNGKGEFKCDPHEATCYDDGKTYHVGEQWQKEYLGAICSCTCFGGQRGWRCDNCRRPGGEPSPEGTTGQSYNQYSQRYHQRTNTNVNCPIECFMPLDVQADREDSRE
Chain of Homeotic protein antennapedia R306E|L310R|H317R|F318R, P02833 R306E L310R H317R F318R (P02833 whole entry R306E/L310R/H317R/F318R): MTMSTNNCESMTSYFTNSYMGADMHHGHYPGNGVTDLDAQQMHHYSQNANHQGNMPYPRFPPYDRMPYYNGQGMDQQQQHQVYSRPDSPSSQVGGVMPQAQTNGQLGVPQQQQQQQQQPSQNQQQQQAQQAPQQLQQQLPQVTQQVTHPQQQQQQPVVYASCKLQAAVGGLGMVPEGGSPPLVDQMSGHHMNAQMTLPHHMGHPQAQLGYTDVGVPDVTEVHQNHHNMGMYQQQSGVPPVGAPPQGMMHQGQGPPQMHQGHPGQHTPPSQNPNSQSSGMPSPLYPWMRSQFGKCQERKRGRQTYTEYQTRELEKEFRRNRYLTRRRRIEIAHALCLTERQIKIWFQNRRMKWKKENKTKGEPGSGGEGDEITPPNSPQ
Chain of Cold shock-like protein wild type, O54310 (O54310 whole entry): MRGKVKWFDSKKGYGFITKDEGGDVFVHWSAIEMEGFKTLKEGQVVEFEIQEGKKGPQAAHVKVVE
Chain of Transcriptional activator Myb V103L, P06876 (P06876 whole entry V103L): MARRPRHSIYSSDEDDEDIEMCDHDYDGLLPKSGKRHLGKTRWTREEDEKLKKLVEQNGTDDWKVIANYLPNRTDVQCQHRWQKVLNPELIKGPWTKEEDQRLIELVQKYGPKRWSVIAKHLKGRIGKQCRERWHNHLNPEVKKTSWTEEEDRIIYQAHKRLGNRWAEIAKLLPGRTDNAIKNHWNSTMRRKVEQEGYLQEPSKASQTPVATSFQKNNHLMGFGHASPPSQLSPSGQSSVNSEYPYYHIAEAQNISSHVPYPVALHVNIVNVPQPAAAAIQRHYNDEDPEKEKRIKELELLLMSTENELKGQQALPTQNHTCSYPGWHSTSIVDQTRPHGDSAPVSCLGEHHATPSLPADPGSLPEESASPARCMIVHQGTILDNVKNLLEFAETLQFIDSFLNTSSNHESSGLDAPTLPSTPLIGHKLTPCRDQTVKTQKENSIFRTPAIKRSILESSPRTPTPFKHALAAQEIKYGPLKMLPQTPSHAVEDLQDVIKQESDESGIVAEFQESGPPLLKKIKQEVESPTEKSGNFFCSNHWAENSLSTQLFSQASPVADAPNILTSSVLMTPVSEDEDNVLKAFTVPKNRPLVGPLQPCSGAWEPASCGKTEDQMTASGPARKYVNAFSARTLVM
Chain of Tropomyosin alpha-1 chain G24A|G27A, Q91472 G24A G27A (Q91472 entry or part of it G24A|G27A | G24A G27A): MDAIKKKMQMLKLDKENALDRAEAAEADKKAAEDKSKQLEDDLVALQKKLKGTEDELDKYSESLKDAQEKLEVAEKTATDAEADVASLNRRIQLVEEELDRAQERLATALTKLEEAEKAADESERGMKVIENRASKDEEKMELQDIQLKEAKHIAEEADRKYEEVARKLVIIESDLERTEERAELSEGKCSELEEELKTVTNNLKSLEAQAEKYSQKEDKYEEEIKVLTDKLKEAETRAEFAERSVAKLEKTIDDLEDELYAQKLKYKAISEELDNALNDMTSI
Chain of Tropomyosin alpha-1 chain wild type, Q91472 (Q91472 entry or part of it): as the sequence (Q91472 entry or part of it G24A|G27A | G24A G27A) above, with A24G, A27G counted along it
Chain of Fibronectin P1619A, P02751 (P02751 whole entry P1619A): as the sequence (P02751 whole entry D1544N) above, with N1544D, P1619A counted along it
Chain of Cell division control protein 42 homolog wild type, P60953 (P60953 whole entry): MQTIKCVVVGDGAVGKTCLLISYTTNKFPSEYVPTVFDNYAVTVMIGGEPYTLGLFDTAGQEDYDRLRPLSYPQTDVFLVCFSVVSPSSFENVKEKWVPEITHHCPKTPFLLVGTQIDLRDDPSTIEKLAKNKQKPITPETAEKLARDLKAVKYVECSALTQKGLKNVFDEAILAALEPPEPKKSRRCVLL

In the case of “Transcriptional activator Myb V103L, P06876”, the “ddG of mutation (higher = less stable)” value [1] is reported as -0.48 kcal/mol and the unfolding free energy [1] is reported as 1.75 kcal/mol.
“Cell division control protein 42 homolog wild type, P60953” gave a Tm (Homo sapiens, Thermal, DSC, 1 X - PBS, Mg2+ 0.5 mM) of 63.5 °C.
Fibronectin D1544N, P02751 gave a Tm (Homo sapiens, pH 2.4, Thermal, CD, glycine hydrochloride 20 mM, NaCl 1 M, reversible: yes, structure 1TTG) of 82 °C, a Tm (Homo sapiens, pH 7, Thermal, CD, sodium phosphate 20 mM, NaCl 0.1 M, reversible: yes, structure 1TTG) of 69 °C and a Tm (Homo sapiens, pH 7, Thermal, CD, sodium phosphate 20 mM, NaCl 1 M, reversible: yes, structure 1TTG) of 80 °C.
“Tropomyosin alpha-1 chain wild type, Q91472” showed a Tm [2] of 37 °C.
With Fibronectin P1619A, P02751 the “ddG of mutation (higher = less stable)” value (Homo sapiens, pH 5, 25 °C, Urea, CD, sodium acetate 50 mM, structure 1TTG) was 0.42 kcal/mol.
Substance Cytochrome c wild type, P00004 has an unfolding free energy (Equus caballus, pH 1.7, 20 °C, HCl, CD, HCl 9 mM) of 3.3 kcal/mol, an unfolding free energy (Equus caballus, pH 4.9, 10 °C, GdnHCl, Fluorescence, sodium acetate 0.2 M) of 8.2 kcal/mol and a denaturant m value [3] of 1.61 kcal/mol/M. For the same substance, the “denaturant midpoint (higher = more stable)” value (“denaturant midpoint” below) [3] was 1.27 M, the unfolding free energy [3] was 2.04 kcal/mol and the unfolding free energy (Equus caballus, pH 6.5, 25 °C, GdnHCl, CD, HCl 0.1 M, reversible: yes) was 12.7 kcal/mol. For the same substance, the denaturant m value [4] was 3.8 kcal/mol/M and 3.2 kcal/mol/M, the unfolding free energy [4] was 20.4 kcal/mol and 12.1 kcal/mol and the denaturant m value [5] was 3.9 kcal/mol/M. For the same substance, the “denaturant midpoint” value [5] was 2.67 M, the unfolding free energy [5] was 10.4 kcal/mol and the unfolding free energy (Equus caballus, pH 7, 21 °C, GdnHCl, Absorbance, phosphate 10 mM) was 8.5 kcal/mol. The unfolding free energy (Equus caballus, pH 7, 21 °C, GdnHCl, CD, phosphate 10 mM) was 8.4 kcal/mol, the unfolding free energy (Equus caballus, pH 7, 21 °C, GdnHCl, Fluorescence, phosphate 10 mM) was 7.4 kcal/mol and the “denaturant midpoint” value [6] was 5 M. The unfolding free energy [6] was 18 kcal/mol, the denaturant m value [7] was 4.1 kcal/mol/M and 2.5 kcal/mol/M and the unfolding free energy [7] was 10.7 kcal/mol and 7.2 kcal/mol. For the same substance, the unfolding free energy (Equus caballus, pH 7, 25 °C, GdnHCl, Absorbance, cacodylate 0.03 M, KCl 0.1 M, reversible: yes) was 8.7 kcal/mol, the denaturant m value [8] was 2 kcal/mol/M and the “denaturant midpoint” value [8] was 2.54 M. For the same substance, the unfolding free energy [8] was 6 kcal/mol, the unfolding free energy (Equus caballus, pH 7, 25 °C, SDS, CD, Phosphate 50 mM) was 3.59 kcal/mol and the “denaturant midpoint” value [9] was 2.6 M. For the same substance, the unfolding free energy [9] was 3 kcal/mol.
With Phospholipase A2 H70A, P00593 the “ddG of mutation (higher = less stable)” value [10] was 3.1 kcal/mol, the denaturant m value [10] was 1.02 kcal/mol/M and the “denaturant midpoint” value [10] was 6.3 M. It also gave an unfolding free energy [10] of 6.4 kcal/mol.
For “Tropomyosin alpha-1 chain G24A|G27A, Q91472 G24A G27A”, the Tm [2] was 38.1 °C and the “change of melting temperature, mutant - wild type (higher = more stable)” value [2] was 1.1 °C.
With “Cold shock-like protein wild type, O54310” the denaturant m value [11] was 1.34 kcal/mol/M and the unfolding free energy [11] was 3.35 kcal/mol.
With Titin V12762A, Q8WZ42 the “ddG of mutation (higher = less stable)” value [12] was 4.78 kcal/mol.
For Dystrophin, P11532 Y231N, the Tm [13] was 43 °C and the “change of melting temperature, mutant - wild type (higher = more stable)” value [13] was -15 °C.
With “Homeotic protein antennapedia R306E|L310R|H317R|F318R, P02833 R306E L310R H317R F318R” the denaturant m value [14] was 1.6 kcal/mol/M and 0.79 kcal/mol/M and the “denaturant midpoint” value [14] was 2.14 M and 1.32 M.
For Soluble cytochrome b562 A62G, P0ABE7, the “ddG of mutation (higher = less stable)” value (Escherichia coli, pH 5, 25 °C, Urea, Fluorescence, NaAc 50 mM, structure 6BQG) was 0.57 kcal/mol.
For “Soluble cytochrome b562 wild type, P0ABE7”, the unfolding free energy (Escherichia coli, pH 7, 20 °C, Urea, CD, Potassium phosphate 50 mM, reversible: yes) was 6.6 kcal/mol and 3.2 kcal/mol, the “heat capacity change of unfolding” value [15] was 2.4 kcal/mol/K and 1.1 kcal/mol/K and the “unfolding enthalpy (van 't Hoff)” value [15] was 94 kcal/mol and 53 kcal/mol.
With Titin I12699A, Q8WZ42 the “ddG of mutation (higher = less stable)” value [12] was 2.89 kcal/mol.
For MKLWFSTLKLKKAA [wild type], the Tm (Bacillus licheniformis, pH 5, Thermal, Fluorescence, Sodium acetate 50 mM, reversible: no) was 65 °C, the Tm (Bacillus licheniformis, pH 6, Thermal, Fluorescence, Sodium phosphate 50 mM) was 64.7 °C and the “unfolding enthalpy (van 't Hoff)” value (Bacillus licheniformis, pH 7, Thermal, Fluorescence, Sodium phosphate 50 mM, reversible: yes) was 99.9 kcal/mol and 112 kcal/mol and 164 kcal/mol. It also gave a Tm (Bacillus licheniformis, pH 9, Thermal, Fluorescence, Sodium pyrophosphate 50 mM, reversible: yes) of 56.5 °C.
